Here are results for 8 sequences from the supplement of paper PMC11316812.

One data set has as its system MCF7. The experiment in a line: percentage of EdU-negative (G0-arrested) nuclei per well, 72 h; higher = more G0 arrest. The settings on record: reference: sequence is the full UniProt precursor, the tested protein was the secreted form or ectodomain.
In the next data set the test system is hTERT-HMEC. The description is as above. The settings on record: reference: sequence is the full UniProt precursor, the tested protein was the secreted form or ectodomain.
[1] abbreviates: protein concentration 0.0225 µM.
Setting [2] is: protein concentration 0.0165 µM.
[3] abbreviates: protein concentration 0.01207 µM.
The mark [4] stands for this setting: protein concentration 0.1207 µM.

± gives the standard deviation of the averaged measurements.
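Further: secreted proteins added to cultured cells, EdU pulse at the end, nuclei found by Hoechst imaging, EdU status from nuclear versus surrounding ring intensity ratio, PBS as neutral control.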

In the case of “MFHSSAMVNSHRKPMFNIHRGFYCLTAILPQICICSQFSVPSSYHFTEDPGAFPVATNGERFPWQELRLPSVVIPLHYDLFVHPNLTSLDFVASEKIEVLVSNATQFIILHSKDLEITNATLQSEEDSRYMKPGKELKVLSYPAHEQIALLVPEKLTPHLKYYVAMDFQAKLGDGFEGFYKSTYRTLGGETRILAVTDFEPTQARMAFPCFDEPLFKANFSIKIRRESRHIALSNMPKVKTIELEGGLLEDHFETTVKMSTYLVAYIVCDFHSLSGFTSSGVKVSIYASPDKRNQTHYALQASLKLLDFYEKYFDIYYPLSKLDLIAIPDFAPGAMENWGLITYRETSLLFDPKTSSASDKLWVTRVIAHELAHQWFGNLVTMEWWNDIWLKEGFAKYMELIAVNATYPELQFDDYFLNVCFEVITKDSLNSSRPISKPAETPTQIQEMFDEVSYNKGACILNMLKDFLGEEKFQKGIIQYLKKFSYRNAKNDDLWSSLSNSCLESDFTSGGVCHSDPKMTSNMLAFLGENAEVKEMMTTWTLQKGIPLLVVKQDGCSLRLQQERFLQGVFQEDPEWRALQERYLWHIPLTYSTSSSNVIHRHILKSKTDTLDLPEKTSWVKFNVDSNGYYIVHYEGHGWDQLITQLNQNHTLLRPKDRVGLIHDVFQLVGAGRLTLDKALDMTYYLQHETSSPALLEGLSYLESFYHMMDRRNISDISENLKRYLLQYFKPVIDRQSWSDKGSVWDRMLRSALLKLACDLNHAPCIQKAAELFSQWMESSGKLNIPTDVLKIVYSVGAQTTAGWNYLLEQYELSMSSAEQNKILYALSTSKHQEKLLKLIELGMEGKVIKTQNLAALLHAIARRPKGQQLAWDFVRENWTHLLKKFDLGSYDIRMIISGTTAHFSSKDKLQEVKLFFESLEAQGSHLDIFQTVLETITKNIKWLEKNLPTLRTWLMVNT [Q6P179]”, the “percentage of EdU-negative” value in the data set with MCF7 (setting [1]) was found to be 25.63 ± 0.041%; in the data set with MCF7 (protein concentration 0.225 µM), 25.5 ± 0.38%; in the data set with hTERT-HMEC (setting [1]), 4.8 ± 0.71%; in the data set with hTERT-HMEC (protein concentration 0.225 µM), 5.45 ± 0.3%.

Turning to “MLQGTCSVLLLWGILGAIQAQQQEVISPDTTERNNNCPEKTDCPIHVYFVLDTSESVTMQSPTDILLFHMKQFVPQFISQLQNEFYLDQVALSWRYGGLHFSDQVEVFSPPGSDRASFIKNLQGISSFRRGTFTDCALANMTEQIRQDRSKGTVHFAVVITDGHVTGSPCGGIKLQAERAREEGIRLFAVAPNQNLKEQGLRDIASTPHELYRNDYATMLPDSTEIDQDTINRIIKVMKHEAYGECYKVSCLEIPGPSGPKGYRGQKGAKGNMGEPGEPGQKGRQGDPGIEGPIGFPGPKGVPGFKGEKGEFGADGRKGAPGLAGKNGTDGQKGKLGRIGPPGCKGDPGNRGPDGYPGEAGSPGERGDQGGKGDPGRPGRRGPPGEIGAKGSKGYQGNSGAPGSPGVKGAKGGPGPRGPKGEPGRRGDPGTKGSPGSDGPKGEKGDPGPEGPRGLAGEVGNKGAKGDRGLPGPRGPQGALGEPGKQGSRGDPGDAGPRGDSGQPGPKGDPGRPGFSYPGPRGAPGEKGEPGPRGPEGGRGDFGLKGEPGRKGEKGEPADPGPPGEPGPRGPRGVPGPEGEPGPPGDPGLTECDVMTYVRETCGCCDCEKRCGALDVVFVIDSSESIGYTNFTLEKNFVINVVNRLGAIAKDPKSETGTRVGVVQYSHEGTFEAIQLDDERIDSLSSFKEAVKNLEWIAGGTWTPSALKFAYDRLIKESRRQKTRVFAVVITDGRHDPRDDDLNLRALCDRDVTVTAIGIGDMFHEKHESENLYSIACDKPQQVRNMTLFSDLVAEKFIDDMEDVLCPDPQIVCPDLPCQTELSVAQCTQRPVDIVFLLDGSERLGEQNFHKARRFVEQVARRLTLARRDDDPLNARVALLQFGGPGEQQVAFPLSHNLTAIHEALETTQYLNSFSHVGAGVVHAINAIVRSPRGGARRHAELSFVFLTDGVTGNDSLHESAHSMRKQNVVPTVLALGSDVDMDVLTTLSLGDRAAVFHEKDYDSLAQPGFFDRFIRWIC”, the “percentage of EdU-negative” value with MCF7 (protein concentration 0.013 µM) came to 27.1 ± 0.99%; in the data set with MCF7 (protein concentration 0.13 µM), 27.7 ± 1.8%; in the data set on hTERT-HMEC (protein concentration 0.013 µM), 6.76 ± 1.4%; in the data set with hTERT-HMEC (protein concentration 0.13 µM), 50.9 ± 9.9%.

For “MKMWLLVSHLVIISITTCLAEFTWYRRYGHGVSEEDKGFGPIFEEQPINTIYPEESLEGKVSLNCRARASPFPVYKWRMNNGDVDLTSDRYSMVGGNLVINNPDKQKDAGIYYCLASNNYGMVRSTEATLSFGYLDPFPPEERPEVRVKEGKGMVLLCDPPYHFPDDLSYRWLLNEFPVFITMDKRRFVSQTNGNLYIANVEASDKGNYSCFVSSPSITKSVFSKFIPLIPIPERTTKPYPADIVVQFKDVYALMGQNVTLECFALGNPVPDIRWRKVLEPMPSTAEISTSGAVLKIFNIQLEDEGIYECEAENIRGKDKHQARIYVQAFPEWVEHINDTEVDIGSDLYWPCVATGKPIPTIRWLKNGYAYHKGELRLYDVTFENAGMYQCIAENTYGAIYANAELKILALAPTFEMNPMKKKILAAKGGRVIIECKPKAAPKPKFSWSKGTEWLVNSSRILIWEDGSLEINNITRNDGGIYTCFAENNRGKANSTGTLVITDPTRIILAPINADITVGENATMQCAASFDPALDLTFVWSFNGYVIDFNKENIHYQRNFMLDSNGELLIRNAQLKHAGRYTCTAQTIVDNSSASADLVVRGPPGPPGGLRIEDIRATSVALTWSRGSDNHSPISKYTIQTKTILSDDWKDAKTDPPIIEGNMEAARAVDLIPWMEYEFRVVATNTLGRGEPSIPSNRIKTDGAAPNVAPSDVGGGGGRNRELTITWAPLSREYHYGNNFGYIVAFKPFDGEEWKKVTVTNPDTGRYVHKDETMSPSTAFQVKVKAFNNKGDGPYSLVAVINSAQDAPSEAPTEVGVKVLSSSEISVHWEHVLEKIVESYQIRYWAAHDKEEAANRVQVTSQEYSARLENLLPDTQYFIEVGACNSAGCGPPSDMIEAFTKKAPPSQPPRIISSVRSGSRYIITWDHVVALSNESTVTGYKVLYRPDGQHDGKLYSTHKHSIEVPIPRDGEYVVEVRAHSDGGDGVVSQVKISGAPTLSPSLLGLLLPAFGILVYLEF”, the “percentage of EdU-negative” value came out at 24.5 ± 1.2% in the data set with MCF7 (setting [1]), 26.2 ± 0.55% in the data set with MCF7 (protein concentration 0.225 µM), 5.11 ± 0.28% with hTERT-HMEC (setting [1]) and 5.87 ± 0.46% with hTERT-HMEC (protein concentration 0.225 µM).

For the sequence “MSCPVPACCALLLVLGLCRARPRNALLLLADDGGFESGAYNNSAIATPHLDALARRSLLFRNAFTSVSSCSPSRASLLTGLPQHQNGMYGLHQDVHHFNSFDKVRSLPLLLSQAGVRTGIIGKKHVGPETVYPFDFAYTEENGSVLQVGRNITRIKLLVRKFLQTQDDRPFFLYVAFHDPHRCGHSQPQYGTFCEKFGNGESGMGRIPDWTPQAYDPLDVLVPYFVPNTPAARADLAAQYTTVGRMDQGVGLVLQELRDAGVLNDTLVIFTSDNGIPFPSGRTNLYWPGTAEPLLVSSPEHPKRWGQVSEAYVSLLDLTPTILDWFSIPYPSYAIFGSKTIHLTGRSLLPALEAEPLWATVFGSQSHHEVTMSYPMRSVQHRHFRLVHNLNFKMPFPIDQDFYVSPTFQDLLNRTTAGQPTGWYKDLRHYYYRARWELYDRSRDPHETQNLATDPRFAQLLEMLRDQLAKWQWETHDPWVCAPDGVLEEKLSPQCQPLHNEL”, the “percentage of EdU-negative” value with MCF7 (setting [1]) came out at 28.4 ± 3.8%; in the data set with MCF7 (protein concentration 0.225 µM), 26.4 ± 0.34%; in the data set on hTERT-HMEC (setting [1]) it was 5.35 ± 1.4%; in the data set with hTERT-HMEC (protein concentration 0.225 µM) it was 7.84 ± 0.29%.

For the sequence “MKTLLLLAVIMIFGLLQAHGNLVNFHRMIKLTTGKEAALSYGFYGCHCGVGGRGSPKDATDRCCVTHDCCYKRLEKRGCGTKFLSYKFSNSGSRITCAKQDSCRSQLCECDKAAATCFARNKTTYNKKYQYYSNKHCRGSTPRC”, the “percentage of EdU-negative” value in the data set with MCF7 (setting [2]) is 25.3 ± 2.7%; in the data set with MCF7 (protein concentration 0.165 µM), 29.2 ± 0.99%; in the data set on hTERT-HMEC (setting [2]), 4.75 ± 0.11%; in the data set on hTERT-HMEC (protein concentration 0.165 µM), 6.7 ± 0.9%.

Regarding “MALFVRLLALALALALGPAATLAGPAKSPYQLVLQHSRLRGRQHGPNVCAVQKVIGTNRKYFTNCKQWYQRKICGKSTVISYECCPGYEKVPGEKGCPAALPLSNLYETLGVVGSTTTQLYTDRTEKLRPEMEGPGSFTIFAPSNEAWASLPAEVLDSLVSNVNIELLNALRYHMVGRRVLTDELKHGMTLTSMYQNSNIQIHHYPNGIVTVNCARLLKADHHATNGVVHLIDKVISTITNNIQQIIEIEDTFETLRAAVAASGLNTMLEGNGQYTLLAPTNEAFEKIPSETLNRILGDPEALRDLLNNHILKSAMCAEAIVAGLSVETLEGTTLEVGCSGDMLTINGKAIISNKDILATNGVIHYIDELLIPDSAKTLFELAAESDVSTAIDLFRQAGLGNHLSGSERLTLLAPLNSVFKDGTPPIDAHTRNLLRNHIIKDQLASKYLYHGQTLETLGGKKLRVFVYRNSLCIENSCIAAHDKRGRYGTLFTMDRVLTPPMGTVMDVLKGDNRFSMLVAAIQSAGLTETLNREGVYTVFAPTNEAFRALPPRERSRLLGDAKELANILKYHIGDEILVSGGIGALVRLKSLQGDKLEVSLKNNVVSVNKEPVAEPDIMATNGVVHVITNVLQPPANRPQERGDELADSALEIFKQASAFSRASQRSVRLAPVYQKLLERMKH”, the “percentage of EdU-negative” value with MCF7 (setting [3]) is 25.4 ± 0.46%; in the data set on MCF7 (setting [4]), 28.3 ± 0.63%; with hTERT-HMEC (setting [3]), 5.243 ± 0.015%; in the data set with hTERT-HMEC (setting [4]) it was 4.82 ± 0.7%.

With “MKVSVAALSCLMLVTALGSQARVTKDAETEFMMSKLPLENPVLLDRFHATSADCCISYTPRSIPCSLLESYFETNSECSKPGVIFLTKKGRRFCANPSDKQVQVCMRMLKLDTRIKTRKN”, the “percentage of EdU-negative” value in the data set with MCF7 (setting [1]) was 22.9 ± 1.3%; in the data set on MCF7 (protein concentration 0.225 µM), 24.7 ± 1.1%; with hTERT-HMEC (setting [1]), 4.81 ± 0.43%; in the data set with hTERT-HMEC (protein concentration 0.225 µM), 5.12 ± 0.82%.

As to “MEKIPVSAFLLLVALSYTLARDTTVKPGAKKDTKDSRPKLPQTLSRGWGDQLIWTQTYEEALYKSKTSNKPLMIIHHLDECPHSQALKKVFAENKEIQKLAEQFVLLNLVYETTDKHLSPDGQYVPRIMFVDPSLTVRADITGRYSNRLYAYEPADTALLLDNMKKALKLLKTEL”, the “percentage of EdU-negative” value in the data set on MCF7 (setting [1]) turned out to be 25.2 ± 1.5%; in the data set on MCF7 (protein concentration 0.225 µM), 25.7 ± 0.74%; in the data set with hTERT-HMEC (setting [1]), 4.87 ± 0.93%; in the data set with hTERT-HMEC (protein concentration 0.225 µM), 7.88 ± 0.32%.
